The target of the series is T1, APPI-WT (SEQ ID NO: 25), soluble, expressed in Pichia pastoris.
T1 chain: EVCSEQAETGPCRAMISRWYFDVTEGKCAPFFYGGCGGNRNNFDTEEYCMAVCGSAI

B1: human mesotrypsin (catalytically active) (protein)
chain: IVGGYTCEENSLPYQVSLNSGSHFCGGSLISEQWVVSAAHCYKTRIQVRLGEHNIKVLEGNEQFINAAKIIRHPKYNRDTLDNDIMLIKLSSPAVINARVSTISLPTTPPAAGTECLISGWGNTLSFGADYPDELKCLDAPVLTQAECKASYPGKITNSMFCVGFLEGGKDSCQRDSGGPVVCNGQLQGVVSWGHGCAWKNRPGVYTKVYNYVDWIKDTIAANS
Take B1: the Kcat (s^-1) of hydrolysis of APPI by mesotrypsin (HPLC time course) worked out at 0.0356 s⁻¹.
